Substrate in this data set: O=C(O)c1ccc(O)c(O)c1
In words: purified protein. Format: biochemical, Comamonas testosteroni. The settings on record: pH 7.5, room temperature, anaerobically purified enzyme, dithionite-treated, O2 co-substrate.

B1: PmdAB (protocatechuate 4,5-dioxygenase) (Comamonas testosteroni) (protein)
chain 1: MARITASVFTSHVPAIGAAMDMGKTQEAYWAPLFKGYDFSRQWMKDNKPDVIFLVYNDHATAFSLDCIPTFAIGTAAEFQPADEGWGPRPVPKVVGHPDLASHIAQSVIQQDFDLTIVNKMDVDHGLTVPLSLMCGEQDPKTGSWPCPVIPFAVNVVQYPVPTGQRCFNLGRAIRKAVESYDQDINVHIWGTGGMSHQLQGARAGLINKEWDNQFLDLLVENPHGLAQMPHIDYVREAGSEGIELVMWLIARGAMSDVDGPAPLPKVAHRFYHVPASNTAVGHLILENQ
chain 2: MALEKPYLDVPGTIIFDAEQSRKGYWLNQFCMSLMKAENRERFRADERAYLDEWAMTEEQKQAVLARDLNWCMRTGGNIYFLAKIGATDGKSFQQMAGSMTGMTEEEYRAMMMGGGRSAEGNRYVGEDGDAQAHHQPQGSAGNQNKEGN
notes: full-length, codon-optimized, N-terminal His6-PmdA co-expressed with PmdB in E. coli BL21(DE3); purified anaerobically; alpha2beta2 heterotetramer, nonheme Fe(II)
In general, Km refers to the substrate concentration at which the rate is half of its maximum. Usually kcat stands for the maximal rate divided by the concentration of active sites. The kcat/Km is the turnover number divided by the Michaelis constant. In the case of B1, the Michaelis constant (Km) came out at 33.00 ± 12.0 µM, the kcat was determined as 107 ± 7.5 s⁻¹ and the kcat/Km came to 3.3e+06 M⁻¹ s⁻¹.

The values are drawn from paper PMC11489326, “Characterization of lignin-degrading enzyme PmdC, which catalyzes a key step in the synthesis of polymer precursor 2-pyrone-4,6-dicarboxylic acid” (The Journal of Biological Chemistry, 2024).
